Measured values as given in publication PMC9980222.

Assays:
[1] = biological target: B41 SOSIP.664-His trimer (HIV-1 isolate B41 (Clade B)); assay: negative-stain electron microscopy
[2] = biological target: B41 SOSIP.664-His trimer (HIV-1 isolate B41 (Clade B)); assay: native gel or EMSA
[3] = biological target: BG505 SOSIP.664-His trimer (HIV-1 isolate BG505 (Clade A)); assay: SPR
[4] = biological target: BG505 SOSIP.664-His trimer (HIV-1 isolate BG505 (Clade A))

**Q.** Which stoichiometry N [1] does the source give for B41 SOSIP.664-His trimer (complex) here?
**A.** Its stoichiometry N is 3.

**Q.** What about the stoichiometry N [2] of the same substance?
**A.** The stoichiometry N was 3.

**Q.** Which KD1 (site 1, heterogeneous-ligand model) [3] does the source give for PGT151 Fab here?
**A.** Its KD1 (site 1, heterogeneous-ligand model) is under 0.1 nM.

**Q.** What about the KD2 (site 2, heterogeneous-ligand model) [3] of the same substance?
**A.** Its KD2 (site 2, heterogeneous-ligand model) is 27 nM.

**Q.** What about the Kd [3] of the same substance?
**A.** The Kd was 2 nM.

**Q.** What about the Sm1 (stoichiometry of site 1, heterogeneous-ligand model) (Fab molecules per trimer) [3] of the same substance?
**A.** The Sm1 (stoichiometry of site 1, heterogeneous-ligand model) (Fab molecules per trimer) was 1.2.

**Q.** And the Sm1+Sm2 (cumulative stoichiometry, heterogeneous-ligand model) (Fab molecules per trimer) [3]?
**A.** The Sm1+Sm2 (cumulative stoichiometry, heterogeneous-ligand model) (Fab molecules per trimer) was 1.9.

**Q.** And the Sm2 (stoichiometry of site 2, heterogeneous-ligand model) (Fab molecules per trimer) [3]?
**A.** Its Sm2 (stoichiometry of site 2, heterogeneous-ligand model) (Fab molecules per trimer) is 0.7.

**Q.** And the koff [3]?
**A.** Its koff is 0.00018 s⁻¹.

**Q.** And the koff1 (site 1, heterogeneous-ligand model) [3]?
**A.** The koff1 (site 1, heterogeneous-ligand model) was under 1e-05 s⁻¹.

**Q.** And the koff2 (site 2, heterogeneous-ligand model) [3]?
**A.** Its koff2 (site 2, heterogeneous-ligand model) is 0.00076 s⁻¹.

**Q.** And the kon [3]?
**A.** Its kon is 87000 M⁻¹ s⁻¹.

**Q.** And the kon1 (site 1, heterogeneous-ligand model) [3]?
**A.** Its kon1 (site 1, heterogeneous-ligand model) is 140000 M⁻¹ s⁻¹.

**Q.** And the kon2 (site 2, heterogeneous-ligand model) [3]?
**A.** The kon2 (site 2, heterogeneous-ligand model) was 28000 M⁻¹ s⁻¹.

**Q.** And the stoichiometry N (Fab molecules per trimer) [3]?
**A.** The stoichiometry N (Fab molecules per trimer) was 1.9.

**Q.** For PGT151 IgG (antibody), which IC50 of neutralization of BG505 Env-pseudotyped virus, TZM-bl assay [4] is on record?
**A.** Its IC50 of neutralization of BG505 Env-pseudotyped virus, TZM-bl assay is 0.043 µg/mL.
